What was measured:
[1] = molecular target: T1, Cdc42Δ7Q61L (human, UniProt P60953 1-184, Q61L); test: direct SPA, GTP-bound Cdc42
[2] = molecular target: T1, Cdc42Δ7Q61L; test: competition SPA vs GST-WASP GBD
Target sequence in this assay (P60953 1-184 Q61L): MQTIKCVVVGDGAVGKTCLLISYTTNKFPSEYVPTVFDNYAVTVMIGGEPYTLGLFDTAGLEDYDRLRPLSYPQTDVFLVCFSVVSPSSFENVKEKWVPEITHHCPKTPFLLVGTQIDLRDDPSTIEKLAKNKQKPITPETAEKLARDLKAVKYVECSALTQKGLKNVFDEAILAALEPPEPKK

[3] = molecular target: T1, Cdc42Δ7Q61L; test: direct SPA, GTP-bound Cdc42; remark: listed apart in the source

| Kd [1] [nM] | Binder | also measured |
| --- | --- | --- |
| 46 | GLSAQDISQPLQNSFIHTGHGDSDPRHCWGFPDRIDELYLGN (domain or fragment) [GST-ACK GBD] |  |
|  | N-WASP G protein-binding domain (GBD) (residues 197–255) (domain or fragment) KKKLTKADIGTPSNFQHIGHVGWDPNTGFDVNNLDPELKKLFDLCGISEAQLKDKETSK | Kd [2]: 16 nM |
| > 1000 | His-SNAP-TOCA1 ΔSH3 (residues 1–480) (domain or fragment) MSWGTELWDQFDNLEKHTQWGIDFLDKYAKFVKERLEIEQNYAKQLRNLVKKYCPKRSAKDEEPRFTSCLSFYNILNELNDYAGQREVVAEEMGHRVYAEIMRYSNDIKGERKSHLQEGRKAQQYLDMCLKQMDNSKRKFERECREAEKAQQTYERLDNDSNATKSDVEKAKQQLHLRTHMADESKNEYAAQLQNYNAEQHKHFYIVIPQVYKHLQEMDERRTVKLSECYKGFADAERKVIPIISKCLEGMVQAAKSVDERRDSQIVVDCFKSGFEPNGDYPFEDYSQHIYRTVSDGTISTPKQESLKPDPRVTVGKAKGKLWLFGKKPKGPALEDFSHLPPEQRRKRLQQRIDELSRELQKEMDQKDALNKMKDVYEKNPQMGDPSSLHPKIAETTSNIERLRMEIHKNEAWLSEVEGKVSQRSERRHSAEANHLVAQGRESPEGSYTEDANQEGRVQPQPHAHPEFDDEFDDDEPLPA |  |
| > 1000 | His-SNAP-TOCA1 (full-length X. tropicalis TOCA1) (natural protein) MSWGTELWDQFDNLEKHTQWGIDFLDKYAKFVKERLEIEQNYAKQLRNLVKKYCPKRSAKDEEPRFTSCLSFYNILNELNDYAGQREVVAEEMGHRVYAEIMRYSNDIKGERKSHLQEGRKAQQYLDMCLKQMDNSKRKFERECREAEKAQQTYERLDNDSNATKSDVEKAKQQLHLRTHMADESKNEYAAQLQNYNAEQHKHFYIVIPQVYKHLQEMDERRTVKLSECYKGFADAERKVIPIISKCLEGMVQAAKSVDERRDSQIVVDCFKSGFEPNGDYPFEDYSQHIYRTVSDGTISTPKQESLKPDPRVTVGKAKGKLWLFGKKPKGPALEDFSHLPPEQRRKRLQQRIDELSRELQKEMDQKDALNKMKDVYEKNPQMGDPSSLHPKIAETTSNIERLRMEIHKNEAWLSEVEGKVSQRSERRHSAEANHLVAQGRESPEGSYTEDANQEGRVQPQPHAHPEFDDEFDDDEPLPAIGHCKSLYPFDGNNEGTLAMKEGEVLYIIEEDKGDGWTRARKQNGEEGYVPTSYIDITLEKNSKGAVTYI |  |
|  | ISLPSDFEHTIHVGFDAVTGEFTGMPEQWARLLQTSNITKSEQK (domain or fragment) [GST-PAK] | Kd [3]: 60 nM |

From paper PMC4919469 (2016)
